Measurements: patent publication US20080207523

System: Tenascin-C (human)
Experiment: competition

Substance | IC50 (MAG2 conjugate, monomer comparator) [nM] | EC50 (two TTA1-MAG2 joined via bis-maleimide peptide linker P5 (bAla-Ser-Ser-Ser-Dpr-Met-Cys-Ser-Ser-Ser-Lys), competition binding assay against the lead compound) [nM]
TTA1-MAG2 aptamer monomer (2A, lead compound) | 5.6 | –
(TTA1-MAG2)2P5 aptamer dimer (22A) | – | 3.6
